Laboratory results as given in patent US20170119864A1, “SACCHARIDE VACCINE FORMULATION” (GLAXOSMITHKLINE BIOLOGICALS S.A., priority 2013, published 2017).

How the values were obtained:
[1] = value used in equation 1; cited from earlier work
[2] = RP-HPLC MAG-Tn3 content before and after 0.2 μm filtration; type: physicochemical; conditions: L-arginine-L-arginine-mono-hydrochloride buffer system
Method: RP-HPLC was performed to assess MAG-Tn3 content in the formulations before and after filtration with a 0.2 μm syringe filter. A Waters 2996 HPLC equipped with UV detection was used with a Poros R 1/10 column from Applied Biosciences and a 0-100% acetonitrile in 0.1% triflouroacetic acid gradient. Size-exclusion chromatography was performed using a Waters 2996 HPLC equipped with a fluorescence detector (Waters) to assess the aggregation profiles of the resulting formulations using a TSKgel G3000PWxl column (Tosoh Bioscience LLC) and a mobile phase of 200 mM NaCl. SDS-PAGE analysis was done using 4-12% Bis-Tris gels (Invitrogen) and MES running buffer (Invitrogen). The gels were stained using Invitrogen's SilverQuest. Centrifuged and non-centrifuged samples were run on gel to assess the presence of precipitate in the formulations. Centrifugation was performed for 15 minutes at 18 000 g. […]
RP-HPLC was performed to assess MAG-Tn3 content in the formulations before and after filtration with a 0.2 μm syringe filter. […] Size-exclusion chromatography was performed using a Waters 2996 HPLC equipped with a fluorescence detector (Waters) to assess the aggregation profiles of the resulting formulations using a TSKgel G3000PWxl column (Tosoh Bioscience LLC) and a mobile phase of 200 mM NaCl. […]

SMILES | pKa [1] | dose up to which MAG-Tn3 appears soluble ([2]; with CpG7909) [μg/dose] | solubility ([2]; with CpG7909, final reconstituted vaccine, read-out: concentration up to which MAG-Tn3 appears soluble) [µg/mL]
N=C(N)NCCC[C@H](N)C(=O)O [Arginine] | molar ratios of Arg:ArgHCl (Arg pKa = 8.991). |  | 
CC[C@H](C)[C@H](NC(=O)CNC(=O)[C@@H](NC(=O)[C@H](Cc1ccccc1)NC(=O)[C@H](CCCCN)NC(=O)[C@H](CO)NC(=O)[C@H](CC(N)=O)NC(=O)[C@H](C)NC(=O)[C@H](CCCCN)NC(=O)[C@@H](NC(=O)[C@H](Cc1ccc(O)cc1)NC(=O)[C@H](CCC(N)=O)NC(=O)C(NC(=O)C(NC(=O)C(N)CO[C@H]1O[C@H](CO)[C@H](O)[C@H](O)[C@H]1NC(C)=O)C(C)O[C@H]1O[C@H](CO)[C@H](O)[C@H](O)[C@H]1NC(C)=O)C(C)O[C@H]1O[C@H](CO)[C@H](O)[C@H](O)[C@H]1NC(C)=O)[C@@H](C)CC)[C@@H](C)CC)C(=O)N[C@H](C(=O)N[C@@H](CCC(=O)O)C(=O)N[C@@H](CC(C)C)C(=O)NCCCC[C@H](NC(=O)[C@H](CC(C)C)NC(=O)[C@H](CCC(=O)O)NC(=O)[C@@H](NC(=O)[C@@H](NC(=O)CNC(=O)[C@@H](NC(=O)[C@H](Cc1ccccc1)NC(=O)[C@H](CCCCN)NC(=O)[C@H](CO)NC(=O)[C@H](CC(N)=O)NC(=O)[C@H](C)NC(=O)[C@H](CCCCN)NC(=O)[C@@H](NC(=O)[C@H](Cc1ccc(O)cc1)NC(=O)[C@H](CCC(N)=O)NC(=O)C(NC(=O)C(NC(=O)C(N)CO[C@H]1O[C@H](CO)[C@H](O)[C@H](O)[C@H]1NC(C)=O)C(C)O[C@H]1O[C@H](CO)[C@H](O)[C@H](O)[C@H]1NC(C)=O)C(C)O[C@H]1O[C@H](CO)[C@H](O)[C@H](O)[C@H]1NC(C)=O)[C@@H](C)CC)[C@@H](C)CC)[C@@H](C)CC)[C@@H](C)O)C(=O)NCCCC[C@H](NC(=O)[C@H](CCCCNC(=O)[C@H](CC(C)C)NC(=O)[C@H](CCC(=O)O)NC(=O)[C@@H](NC(=O)[C@@H](NC(=O)CNC(=O)[C@@H](NC(=O)[C@H](Cc1ccccc1)NC(=O)[C@H](CCCCN)NC(=O)[C@H](CO)NC(=O)[C@H](CC(N)=O)NC(=O)[C@H](C)NC(=O)[C@H](CCCCN)NC(=O)[C@@H](NC(=O)[C@H](Cc1ccc(O)cc1)NC(=O)[C@H](CCC(N)=O)NC(=O)C(NC(=O)C(NC(=O)C(N)CO[C@H]1O[C@H](CO)[C@H](O)[C@H](O)[C@H]1NC(C)=O)C(C)O[C@H]1O[C@H](CO)[C@H](O)[C@H](O)[C@H]1NC(C)=O)C(C)O[C@H]1O[C@H](CO)[C@H](O)[C@H](O)[C@H]1NC(C)=O)[C@@H](C)CC)[C@@H](C)CC)[C@@H](C)CC)[C@@H](C)O)NC(=O)[C@H](CC(C)C)NC(=O)[C@H](CCC(=O)O)NC(=O)[C@@H](NC(=O)[C@@H](NC(=O)CNC(=O)[C@@H](NC(=O)[C@H](Cc1ccccc1)NC(=O)[C@H](CCCCN)NC(=O)[C@H](CO)NC(=O)[C@H](CC(N)=O)NC(=O)[C@H](C)NC(=O)[C@H](CCCCN)NC(=O)[C@@H](NC(=O)[C@H](Cc1ccc(O)cc1)NC(=O)[C@H](CCC(N)=O)NC(=O)C(NC(=O)C(NC(=O)C(N)CO[C@H]1O[C@H](CO)[C@H](O)[C@H](O)[C@H]1NC(C)=O)C(C)O[C@H]1O[C@H](CO)[C@H](O)[C@H](O)[C@H]1NC(C)=O)C(C)O[C@H]1O[C@H](CO)[C@H](O)[C@H](O)[C@H]1NC(C)=O)[C@@H](C)CC)[C@@H](C)CC)[C@@H](C)CC)[C@@H](C)O)C(=O)NCCC(=O)O)[C@@H](C)O (stereo partly drawn) [MAG-Tn3] |  | ≤ 450 | ≤ 900
